From IntAct's records for PubMed 31515488

B1: Cytochrome b-245 chaperone 1 (Homo sapiens), Q9BQA9 (parent)
chain: MYLQVETRTSSRLHLKRAPGIRSWSLLVGILSIGLAAAYYSGDSLGWKLFYVTGCLFVAVQNLEDWEEAIFDKSTGKVVLKTFSLYKKLLTLFRAGHDQVVVLLHDVRDVSVEEEKVRYFGKGYMVVLRLATGFSHPLTQSAVMGHRSDVEAIAKLITSFLELHCLESPTELSQSSDSEAGDPASQS
partner: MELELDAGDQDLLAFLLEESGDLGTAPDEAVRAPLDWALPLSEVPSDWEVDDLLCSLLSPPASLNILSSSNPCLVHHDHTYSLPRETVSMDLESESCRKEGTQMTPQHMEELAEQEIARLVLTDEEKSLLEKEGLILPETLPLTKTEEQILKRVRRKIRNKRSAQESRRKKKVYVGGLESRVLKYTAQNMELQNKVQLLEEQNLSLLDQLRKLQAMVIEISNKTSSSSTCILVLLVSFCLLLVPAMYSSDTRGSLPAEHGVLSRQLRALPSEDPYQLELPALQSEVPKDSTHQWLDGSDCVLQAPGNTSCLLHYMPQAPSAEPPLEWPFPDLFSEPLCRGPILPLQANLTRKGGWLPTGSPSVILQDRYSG
B2: 5-phosphohydroxy-L-lysine phospho-lyase (Homo sapiens), Q8IUZ5 (parent)
chain: MAADQRPKADTLALRQRLISSSCRLFFPEDPVKIVRAQGQYMYDEQGAEYIDCISNVAHVGHCHPLVVQAAHEQNQVLNTNSRYLHDNIVDYAQRLSETLPEQLCVFYFLNSGSEANDLALRLARHYTGHQDVVVLDHAYHGHLSSLIDISPYKFRNLDGQKEWVHVAPLPDTYRGPYREDHPNPAMAYANEVKRVVSSAQEKGRKIAAFFAESLPSVGGQIIPPAGYFSQVAEHIRKAGGVFVADEIQVGFGRVGKHFWAFQLQGKDFVPDIVTMGKSIGNGHPVACVAATQPVARAFEATGVEYFNTFGGSPVSCAVGLAVLNVLEKEQLQDHATSVGSFLMQLLGQQKIKHPIVGDVRGVGLFIGVDLIKDEATRTPATEEAAYLVSRLKENYVLLSTDGPGRNILKFKPPMCFSLDNARQVVAKLDAILTDMEEKVRSCETLRLQP
partner: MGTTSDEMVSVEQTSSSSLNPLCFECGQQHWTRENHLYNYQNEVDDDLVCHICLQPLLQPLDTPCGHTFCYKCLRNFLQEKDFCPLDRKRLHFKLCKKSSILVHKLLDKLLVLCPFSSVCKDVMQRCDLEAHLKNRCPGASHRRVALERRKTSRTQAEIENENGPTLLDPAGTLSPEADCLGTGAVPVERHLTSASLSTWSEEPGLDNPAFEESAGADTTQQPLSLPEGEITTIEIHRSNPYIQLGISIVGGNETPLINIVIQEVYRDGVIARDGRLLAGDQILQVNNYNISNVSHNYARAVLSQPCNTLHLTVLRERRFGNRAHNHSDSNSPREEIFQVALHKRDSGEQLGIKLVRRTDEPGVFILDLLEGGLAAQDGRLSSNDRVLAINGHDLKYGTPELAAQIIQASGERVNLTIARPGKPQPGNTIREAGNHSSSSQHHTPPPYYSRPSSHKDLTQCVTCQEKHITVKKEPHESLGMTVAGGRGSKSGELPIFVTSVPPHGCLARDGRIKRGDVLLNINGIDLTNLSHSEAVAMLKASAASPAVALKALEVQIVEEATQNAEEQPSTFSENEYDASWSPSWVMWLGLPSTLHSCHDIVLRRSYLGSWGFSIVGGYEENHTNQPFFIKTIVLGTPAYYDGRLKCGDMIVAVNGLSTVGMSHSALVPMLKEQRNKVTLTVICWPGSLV
B3: Alpha-ketoglutarate-dependent dioxygenase alkB homolog 3 (Homo sapiens), Q96Q83 (parent)
chain: MEEKRRRARVQGAWAAPVKSQAIAQPATTAKSHLHQKPGQTWKNKEHHLSDREFVFKEPQQVVRRAPEPRVIDREGVYEISLSPTGVSRVCLYPGFVDVKEADWILEQLCQDVPWKQRTGIREDITYQQPRLTAWYGELPYTYSRITMEPNPHWHPVLRTLKNRIEENTGHTFNSLLCNLYRNEKDSVDWHSDDEPSLGRCPIIASLSFGATRTFEMRKKPPPEENGDYTYVERVKIPLDHGTLLIMEGATQADWQHRVPKEYHSREPRVNLTFRTVYPDPRGAPW
B4: Ubl carboxyl-terminal hydrolase 18 (Homo sapiens), Q9UMW8 (parent)
chain: MSKAFGLLRQICQSILAESSQSPADLEEKKEEDSNMKREQPRERPRAWDYPHGLVGLHNIGQTCCLNSLIQVFVMNVDFTRILKRITVPRGADEQRRSVPFQMLLLLEKMQDSRQKAVRPLELAYCLQKCNVPLFVQHDAAQLYLKLWNLIKDQITDVHLVERLQALYTIRVKDSLICVDCAMESSRNSSMLTLPLSLFDVDSKPLKTLEDALHCFFQPRELSSKSKCFCENCGKKTRGKQVLKLTHLPQTLTIHLMRFSIRNSQTRKICHSLYFPQSLDFSQILPMKRESCDAEEQSGGQYELFAVIAHVGMADSGHYCVYIRNAVDGKWFCFNDSNICLVSWEDIQCTYGNPNYHWQETAYLLVYMKMEC
B5: Protein unc-50 homolog (Homo sapiens), Q53HI1 (parent)
chain: MLPSTSVNSLVQGNGVLNSRDAARHTAGAKRYKYLRRLFRFRQMDFEFAAWQMLYLFTSPQRVYRNFHYRKQTKDQWARDDPAFLVLLSIWLCVSTIGFGFVLDMGFFETIKLLLWVVLIDCVGVGLLIATLMWFISNKYLVKRQSRDYDVEWGYAFDVHLNAFYPLLVILHFIQLFFINHVILTDTFIGYLVGNTLWLVAVGYYIYVTFLGYSALPFLKNTVILLYPFAPLILLYGLSLALGWNFTHTLCSFYKYRVK
partner: B1 partner
B6: Protein FAM200C (Homo sapiens), Q8IZ13 (parent)
chain: MSKKRKWDDDYVRYWFTCTTEVDGTQRPQCVLCNSVFSNADLRPSKLSDHFNRQHGGVAGHDLNSLKHMPAPSDQSETLKAFGVASHEDTLLQASYQFAYLCAKEKNPHTVAEKLVKPCALEIAQIVLGPDAQKKLQQVPLSDDVIHSRIDEMSQDILQQVLEDIKASPLKVGIQLAETTDMDDCSQLMAFVRYIKEREIVEEFLFCEPLQLSMKGIDVFNLFRDFFLKHKIALDVCGSVCTDGASSMLGENSEFVAYVKKEIPHIVVTHCLLNPHALVIKTLPTKLRDALFTVVRVINFIKGRAPNHRLFQAFFEEIGIEYSVLLFHTEMRWLSRGQILTHIFEMYEEINQFLHHKSSNLVDGFENKEFKIHLAYLADLFKHLNELSASMQRTGMNTVSAREKLSAFVRKFPFWQKRIEKRNFTNFPFLEEIIVSDNEGIFIAAEITLHLQQLSNFFHGYFSIGDLNEASKWILDPFLFNIDFVDDSYLMKNDLAELRASGQILMEFETMKLEDFWCAQFTAFPNLAKTALEILMPFATTYLCELGFSSLLHFKTKSRSCFNLSDDIRVAISKKVPRFSDIIEQKLQLQQKSL
B7: DNA endonuclease RBBP8 (Homo sapiens), Q99708 (parent)
chain: MNISGSSCGSPNSADTSSDFKDLWTKLKECHDREVQGLQVKVTKLKQERILDAQRLEEFFTKNQQLREQQKVLHETIKVLEDRLRAGLCDRCAVTEEHMRKKQQEFENIRQQNLKLITELMNERNTLQEENKKLSEQLQQKIENDQQHQAAELECEEDVIPDSPITAFSFSGVNRLRRKENPHVRYIEQTHTKLEHSVCANEMRKVSKSSTHPQHNPNENEILVADTYDQSQSPMAKAHGTSSYTPDKSSFNLATVVAETLGLGVQEESETQGPMSPLGDELYHCLEGNHKKQPFEESTRNTEDSLRFSDSTSKTPPQEELPTRVSSPVFGATSSIKSGLDLNTSLSPSLLQPGKKKHLKTLPFSNTCISRLEKTRSKSEDSALFTHHSLGSEVNKIIIQSSNKQILINKNISESLGEQNRTEYGKDSNTDKHLEPLKSLGGRTSKRKKTEEESEHEVSCPQASFDKENAFPFPMDNQFSMNGDCVMDKPLDLSDRFSAIQRQEKSQGSETSKNKFRQVTLYEALKTIPKGFSSSRKASDGNCTLPKDSPGEPCSQECIILQPLNKCSPDNKPSLQIKEENAVFKIPLRPRESLETENVLDDIKSAGSHEPIKIQTRSDHGGCELASVLQLNPCRTGKIKSLQNNQDVSFENIQWSIDPGADLSQYKMDVTVIDTKDGSQSKLGGETVDMDCTLVSETVLLKMKKQEQKGEKSSNEERKMNDSLEDMFDRTTHEEYESCLADSFSQAADEEEELSTATKKLHTHGDKQDKVKQKAFVEPYFKGDERETSLQNFPHIEVVRKKEERRKLLGHTCKECEIYYADMPAEEREKKLASCSRHRFRYIPPNTPENFWEVGFPSTQTCMERGYIKEDLDPCPRPKRRQPYNAIFSPKGKEQKT
B8: Ornithine decarboxylase antizyme 3 (Homo sapiens), Q9UMX2 (parent)
chain: MPCKRCRPSVYSLSYIKRGKTRNYLYPIWSPYAYYLYCYKYRITLREKMLPRCYKSITYKEEEDLTLQPRSCLQCSESLVGLQEGKSTEQGNHDQLKELYSAGNLTVLATDPLLHQDPVQLDFHFRLTSQTSAHWHGLLCDRRLFLDIPYQALDQGNRESLTATLEYVEEKTNVDSVFVNFQNDRNDRGALLRAFSYMGFEVVRPDHPALPPLDNVIFMVYPLERDVGHLPSEPP
B9: MIF4G domain-containing protein (Homo sapiens), A9UHW6 (parent)
chain: MGEPSREEYKIQSFDAETQQLLKTALKDPGAVDLEKVANVIVDHSLQDCVFSKEAGRMCYAIIQAESKQAGQSVFRRGLLNRLQQEYQAREQLRARSLQGWVCYVTFICNIFDYLRVNNMPMMALVNPVYDCLFRLAQPDSLSKEEEVDCLVLQLHRVGEQLEKMNGQRMDELFVLIRDGFLLPTGLSSLAQLLLLEIIEFRAAGWKTTPAAHKYYYSEVSD
partner: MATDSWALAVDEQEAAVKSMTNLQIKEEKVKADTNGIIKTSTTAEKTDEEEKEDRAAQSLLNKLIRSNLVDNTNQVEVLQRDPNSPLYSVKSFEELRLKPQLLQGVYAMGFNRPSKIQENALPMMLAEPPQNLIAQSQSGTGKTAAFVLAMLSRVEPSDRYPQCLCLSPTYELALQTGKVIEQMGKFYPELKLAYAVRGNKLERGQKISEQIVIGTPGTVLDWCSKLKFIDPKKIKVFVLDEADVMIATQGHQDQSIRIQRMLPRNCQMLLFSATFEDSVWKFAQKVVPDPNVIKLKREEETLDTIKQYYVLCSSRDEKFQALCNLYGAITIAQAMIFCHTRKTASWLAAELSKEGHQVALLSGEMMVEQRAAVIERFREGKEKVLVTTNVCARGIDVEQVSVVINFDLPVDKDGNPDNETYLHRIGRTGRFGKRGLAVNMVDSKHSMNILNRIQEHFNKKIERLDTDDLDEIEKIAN

Variants of: B1
Conditions: with creb3_human CREB3, O43889

Variant	effect of a mutation on the interaction
R129W	with no effect

Variants of: B2
Conditions: with lnx2_human LNX2, Q8N448

Variant	effect of a mutation on the interaction
H126R	with no effect

Variants of: B3
Conditions: with ikzf1_human IKZF1, Q13422
Chain of ikzf1_human IKZF1, Q13422 (Q13422 whole entry): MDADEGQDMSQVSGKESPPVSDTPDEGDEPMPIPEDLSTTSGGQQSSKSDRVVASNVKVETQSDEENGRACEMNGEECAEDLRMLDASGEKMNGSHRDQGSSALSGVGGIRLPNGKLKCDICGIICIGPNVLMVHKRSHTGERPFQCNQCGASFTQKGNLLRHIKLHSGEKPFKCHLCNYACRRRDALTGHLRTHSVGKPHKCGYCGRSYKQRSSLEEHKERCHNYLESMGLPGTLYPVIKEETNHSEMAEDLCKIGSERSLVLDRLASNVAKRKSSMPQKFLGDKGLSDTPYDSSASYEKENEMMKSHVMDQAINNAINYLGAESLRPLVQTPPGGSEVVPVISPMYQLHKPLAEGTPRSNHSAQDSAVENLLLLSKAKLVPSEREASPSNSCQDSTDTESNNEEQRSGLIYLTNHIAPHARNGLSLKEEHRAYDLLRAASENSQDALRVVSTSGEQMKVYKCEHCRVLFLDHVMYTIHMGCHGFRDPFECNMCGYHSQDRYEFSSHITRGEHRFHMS

Variant	effect of a mutation on the interaction
N226S	with no effect
R213C	with no effect

Variants of: B4
Conditions: with isg15_human ISG15, P05161
Chain of isg15_human ISG15, P05161 (P05161 whole entry): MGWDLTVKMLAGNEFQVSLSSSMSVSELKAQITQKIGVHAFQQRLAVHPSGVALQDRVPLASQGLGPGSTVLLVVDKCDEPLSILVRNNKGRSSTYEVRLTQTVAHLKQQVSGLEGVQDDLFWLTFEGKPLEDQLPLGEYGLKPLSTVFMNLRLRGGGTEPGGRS

Variant	effect of a mutation on the interaction
T169M	with no effect

Variants of: B5
Conditions: with creb3_human CREB3, O43889

Variant	effect of a mutation on the interaction
S214G	with no effect

Variants of: B6
Conditions: with mt21a_human METTL21A

Variant	effect of a mutation on the interaction
M248K	disrupting interaction strength

Variants of: B7
Conditions: with lims1_human LIMS1, P48059
Chain of lims1_human LIMS1, P48059 (P48059 whole entry): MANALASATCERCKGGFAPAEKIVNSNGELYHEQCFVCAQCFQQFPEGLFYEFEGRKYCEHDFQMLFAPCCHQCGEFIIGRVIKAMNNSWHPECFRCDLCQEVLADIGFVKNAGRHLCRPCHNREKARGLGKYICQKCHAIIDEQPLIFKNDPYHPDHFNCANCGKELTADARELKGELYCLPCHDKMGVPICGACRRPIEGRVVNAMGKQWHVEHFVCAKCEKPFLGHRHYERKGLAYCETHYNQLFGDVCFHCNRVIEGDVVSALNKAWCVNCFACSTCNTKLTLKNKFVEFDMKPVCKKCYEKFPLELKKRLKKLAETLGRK

Variant	effect of a mutation on the interaction
E320K	with no effect

Variants of: B8
Conditions: with azin1_human AZIN1, O14977
Chain of azin1_human AZIN1, O14977 (O14977 whole entry): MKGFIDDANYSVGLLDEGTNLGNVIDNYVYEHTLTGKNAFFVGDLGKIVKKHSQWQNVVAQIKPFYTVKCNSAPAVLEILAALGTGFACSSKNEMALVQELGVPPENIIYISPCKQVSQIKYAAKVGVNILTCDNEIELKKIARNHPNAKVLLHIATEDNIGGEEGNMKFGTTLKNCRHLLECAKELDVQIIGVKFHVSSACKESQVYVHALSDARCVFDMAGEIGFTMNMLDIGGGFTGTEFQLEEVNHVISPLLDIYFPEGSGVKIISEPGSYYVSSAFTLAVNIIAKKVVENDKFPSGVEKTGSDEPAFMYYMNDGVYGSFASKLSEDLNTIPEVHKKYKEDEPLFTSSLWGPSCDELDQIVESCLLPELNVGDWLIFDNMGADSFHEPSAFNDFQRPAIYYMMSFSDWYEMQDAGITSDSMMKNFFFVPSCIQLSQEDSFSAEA

Variant	effect of a mutation on the interaction
V174A	with no effect
R193Q	with no effect

Variants of: B9
Conditions: with dd19a_human DDX19A

Variant	effect of a mutation on the interaction
E160K	with no effect
